This is an account of results in patent US20210395392A1 (Bristol-Myers Squibb, published 2021).

The target in test [1] is T1, Human MerTK on hMerTK-expressing cells (human, UniProt Q12866 21-999).
T1 sequence: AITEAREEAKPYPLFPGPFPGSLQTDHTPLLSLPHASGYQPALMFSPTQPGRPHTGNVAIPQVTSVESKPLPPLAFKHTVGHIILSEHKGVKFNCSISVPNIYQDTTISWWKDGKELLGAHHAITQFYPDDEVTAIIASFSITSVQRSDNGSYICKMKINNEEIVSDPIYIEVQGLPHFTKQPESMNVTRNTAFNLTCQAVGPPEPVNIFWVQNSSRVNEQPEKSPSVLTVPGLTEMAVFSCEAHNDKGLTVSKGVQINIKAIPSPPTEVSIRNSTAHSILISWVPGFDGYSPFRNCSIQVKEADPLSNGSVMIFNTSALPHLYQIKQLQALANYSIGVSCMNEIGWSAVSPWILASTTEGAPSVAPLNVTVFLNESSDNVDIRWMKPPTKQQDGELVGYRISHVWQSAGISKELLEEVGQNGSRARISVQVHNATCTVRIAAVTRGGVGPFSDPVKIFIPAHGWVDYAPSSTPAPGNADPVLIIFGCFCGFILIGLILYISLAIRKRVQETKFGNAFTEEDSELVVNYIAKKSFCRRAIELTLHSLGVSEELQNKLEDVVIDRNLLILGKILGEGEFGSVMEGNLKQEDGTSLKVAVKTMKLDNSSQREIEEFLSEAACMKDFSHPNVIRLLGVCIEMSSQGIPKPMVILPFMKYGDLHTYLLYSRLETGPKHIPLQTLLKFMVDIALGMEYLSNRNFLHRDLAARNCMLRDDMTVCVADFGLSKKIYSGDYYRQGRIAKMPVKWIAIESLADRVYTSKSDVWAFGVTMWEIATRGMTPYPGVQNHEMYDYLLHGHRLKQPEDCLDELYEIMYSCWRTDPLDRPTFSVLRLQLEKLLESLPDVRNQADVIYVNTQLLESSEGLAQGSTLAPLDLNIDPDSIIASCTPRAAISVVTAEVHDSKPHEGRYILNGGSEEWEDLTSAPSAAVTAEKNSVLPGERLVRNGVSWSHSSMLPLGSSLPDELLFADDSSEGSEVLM
Description: cell-based or functional assay.

The target of test [2] is T2, Mouse MerTK on mMerTK-expressing cells (mouse, UniProt Q60805 19-994).
T2 sequence: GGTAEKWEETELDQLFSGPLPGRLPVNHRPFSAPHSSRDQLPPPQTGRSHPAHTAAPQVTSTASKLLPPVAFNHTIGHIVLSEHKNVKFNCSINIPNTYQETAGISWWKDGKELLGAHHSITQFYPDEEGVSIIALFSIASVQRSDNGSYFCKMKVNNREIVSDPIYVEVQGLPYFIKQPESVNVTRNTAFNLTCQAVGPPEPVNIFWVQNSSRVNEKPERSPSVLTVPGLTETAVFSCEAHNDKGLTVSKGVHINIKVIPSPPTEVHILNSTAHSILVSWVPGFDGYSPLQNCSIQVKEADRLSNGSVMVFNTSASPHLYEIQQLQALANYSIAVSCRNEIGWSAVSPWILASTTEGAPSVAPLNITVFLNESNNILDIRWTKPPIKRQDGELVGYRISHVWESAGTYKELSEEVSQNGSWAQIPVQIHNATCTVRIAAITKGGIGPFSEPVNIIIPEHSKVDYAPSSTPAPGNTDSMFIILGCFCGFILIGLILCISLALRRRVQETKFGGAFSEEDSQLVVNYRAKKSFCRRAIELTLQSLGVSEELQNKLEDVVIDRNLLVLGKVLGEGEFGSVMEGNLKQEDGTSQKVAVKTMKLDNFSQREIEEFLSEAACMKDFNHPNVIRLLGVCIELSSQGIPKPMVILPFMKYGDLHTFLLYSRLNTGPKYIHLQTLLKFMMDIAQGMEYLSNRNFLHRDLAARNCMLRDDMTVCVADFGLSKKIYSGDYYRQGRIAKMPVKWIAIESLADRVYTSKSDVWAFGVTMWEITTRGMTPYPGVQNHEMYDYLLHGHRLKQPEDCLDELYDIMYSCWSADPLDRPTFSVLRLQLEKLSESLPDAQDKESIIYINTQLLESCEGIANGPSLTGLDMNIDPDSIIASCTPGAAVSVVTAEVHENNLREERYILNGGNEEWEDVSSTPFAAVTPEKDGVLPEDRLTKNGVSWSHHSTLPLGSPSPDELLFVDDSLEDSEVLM
Description: cell-based or functional assay.

Test [3] addresses T1, Human MerTK on hMerTK-expressing cells. Description: binding to hMerTK-expressing cells.
The target in test [4] is T3, Recombinant soluble extracellular domain of human MerTK (human, UniProt Q12866 21-505).
T3 construct: SPR analyte; also called hMerTK
T3 sequence: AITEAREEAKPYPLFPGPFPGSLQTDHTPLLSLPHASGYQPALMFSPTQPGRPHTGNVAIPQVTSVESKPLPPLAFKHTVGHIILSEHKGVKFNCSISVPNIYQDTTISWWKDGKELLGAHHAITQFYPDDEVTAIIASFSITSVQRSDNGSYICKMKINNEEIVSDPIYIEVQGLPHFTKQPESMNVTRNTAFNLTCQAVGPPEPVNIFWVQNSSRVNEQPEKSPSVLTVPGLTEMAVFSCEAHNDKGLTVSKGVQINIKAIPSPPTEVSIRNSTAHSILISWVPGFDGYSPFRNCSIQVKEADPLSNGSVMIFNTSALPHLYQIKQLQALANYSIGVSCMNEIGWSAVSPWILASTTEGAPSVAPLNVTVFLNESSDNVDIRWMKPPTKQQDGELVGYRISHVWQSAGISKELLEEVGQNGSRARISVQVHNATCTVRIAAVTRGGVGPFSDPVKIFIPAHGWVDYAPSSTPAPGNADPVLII
Description: SPR, soluble MerTK ECD; format for mouse mAbs not detailed. Background: Surface plasmon resonance follows binding to a sensor surface in real time, without labels.

For test [5], the target named is T4, Recombinant soluble extracellular domain of cynomolgus monkey MerTK (cynomolgus monkey, UniProt Q12866 21-505 (human entry)).
T4 construct: SPR analyte; also called cMerTK; Cynomolgus MerTK
T4 chain: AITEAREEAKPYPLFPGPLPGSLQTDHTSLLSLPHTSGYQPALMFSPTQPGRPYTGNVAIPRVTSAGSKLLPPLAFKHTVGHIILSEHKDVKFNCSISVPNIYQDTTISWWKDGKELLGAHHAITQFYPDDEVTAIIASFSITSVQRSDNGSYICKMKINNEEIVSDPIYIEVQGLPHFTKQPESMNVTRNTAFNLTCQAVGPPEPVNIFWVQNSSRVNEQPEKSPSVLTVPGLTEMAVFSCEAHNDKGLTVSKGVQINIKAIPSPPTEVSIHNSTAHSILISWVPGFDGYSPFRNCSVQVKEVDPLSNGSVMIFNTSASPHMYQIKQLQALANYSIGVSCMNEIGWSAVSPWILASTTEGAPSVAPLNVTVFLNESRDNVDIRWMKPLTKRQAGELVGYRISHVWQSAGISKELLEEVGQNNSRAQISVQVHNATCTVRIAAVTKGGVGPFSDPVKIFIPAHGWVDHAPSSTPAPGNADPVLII
Described as above.

Test [6] concerns the target T5, Recombinant soluble extracellular domain of mouse MerTK (mouse, UniProt Q60805 19-497).
T5 construct: SPR analyte; also called mMerTK
T5 sequence: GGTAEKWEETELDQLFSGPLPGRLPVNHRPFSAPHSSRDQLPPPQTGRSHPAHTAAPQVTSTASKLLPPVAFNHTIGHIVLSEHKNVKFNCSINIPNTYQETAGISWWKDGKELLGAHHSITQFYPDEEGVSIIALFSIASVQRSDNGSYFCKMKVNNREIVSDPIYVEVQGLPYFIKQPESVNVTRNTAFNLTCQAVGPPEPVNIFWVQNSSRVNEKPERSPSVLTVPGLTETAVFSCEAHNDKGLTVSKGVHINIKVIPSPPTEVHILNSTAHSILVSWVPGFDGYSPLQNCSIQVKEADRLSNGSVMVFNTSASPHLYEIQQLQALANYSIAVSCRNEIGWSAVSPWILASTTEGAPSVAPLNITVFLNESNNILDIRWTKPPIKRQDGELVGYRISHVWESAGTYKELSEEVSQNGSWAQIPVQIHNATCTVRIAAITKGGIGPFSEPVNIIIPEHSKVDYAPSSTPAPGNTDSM
The description is as above.

B1: MoMAb 16B9 (antibody, V domains shown)
VH: EVQLQQSRPDLVKPGASVKMSCKASGYTFIDYNMHWVKQRHGKSLEWIGYIHPNNGGTSYNQKFKDKATLTMNKSSSTAYMELRSLTSEDSAVYYCSRSGIYYDYDSFFDYWGQGTTLTVSS
VL: DIQMTQSPASLYVSVGETVTITCRASENIYSHLAWYQQKLGKSPHLLVYAATNLADGVPSRFSGSGSGTQYSLKINSLQSEDFGSYYCQHFWGSPWTFGGGTKLEIK
notes: Mouse mAb
The term Kd denotes a measure of binding affinity in units of concentration. As a reminder, the koff is the first-order rate constant of dissociation. One may read the kon as the second-order rate constant of association. For the molecule B1, in test [1], the “Signaling Assay, hMerTK with Gas6, pSTAT1 IC50 (nM)” value was greater than 100 nM and the “Signaling Assay, hMerTK without Gas6, pSTAT1 IC50 (nM)” value was greater than 100 nM. The “Signaling Assay, mMerTK with Gas6, pSTAT1 IC50 (nM)” value in test [2] amounted to 0.9 nM. In test [3], the binding result is “no binding”. For the same molecule, the dissociation constant (Kd) in test [4] was greater than 250 nM. The Kd in test [5] is greater than 100 nM. For the same molecule, in test [6], the Kd is 35.1 nM, the koff stood at 0.00256 s⁻¹, the kon amounted to 72700 M⁻¹ s⁻¹ and the t1/2 was 4.5 min.

B2: MoMAb 4E9 (antibody, V domains shown)
VH: QIQLVQSGPELKKPGETVKISCKASGNTFTTYGMSWVKQAPGKNLKWMGWINNYSGVSTYADDFKGRFAFSLETSATTAYLQINNLTNEDSATYFCARDYYGSGGWVFDYWGQGTTLTVSS
VL: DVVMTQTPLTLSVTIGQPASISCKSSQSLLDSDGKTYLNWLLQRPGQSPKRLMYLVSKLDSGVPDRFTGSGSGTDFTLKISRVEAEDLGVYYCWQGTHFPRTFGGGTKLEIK
notes: Mouse mAb; Bin 2
In the case of B2, in test [1], the “Inhibition of Efferocytosis IC50” value came out at 0.632 nM; the “Signaling Assay, hMerTK with Gas6, pSTAT1 IC50 (nM)” value stood at 1.52 nM; the “Signaling Assay, hMerTK without Gas6, pSTAT1 IC50 (nM)” value was greater than 100 nM. Besides, the “Signaling Assay, mMerTK with Gas6, pSTAT1 IC50 (nM)” value in test [2] came to 1.86 nM. In addition, in test [4], the koff was found to be 0.00114 s⁻¹ and the t1/2 was 10.1 min. Moreover, in test [5], the Kd is 40 nM, the koff was 0.00112 s⁻¹, the kon was found to be 28400 M⁻¹ s⁻¹ and the t1/2 stood at 10.3 min. Besides, in test [6], the Kd was 9.7 nM, the koff was determined as 0.00133 s⁻¹, the kon was determined as 137000 M⁻¹ s⁻¹ and the t1/2 is 8.7 min.
